In the supplement of paper PMC10126150:
± gives the standard deviation of the averaged measurements.

System: ATP
Test: switch fluorescence ratio, 500 uM ATP over buffer (Cy3 cluster intensity, sum of 5 cycles each) (fold (ratio)); higher = stronger signal-on switching upon ATP binding; sequences stand for … in TCGTCGGCAGCGTCAGATGTGTATAAGAGACAGTTTTTTTTTTTTTTTTTTTTTTTTT…TC
Conditions: aptamer strand: ATP DNA aptamer (quencher-CACCTGGGGGAGTATTGCGGAGGAAGG + anchor), 100 nM annealed; ATP concentration: 500 uM
In short: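 Between each of five buffer/ATP cycles, the flow-cell was stripped with NaOH and re-annealed. Each cycle imaged Cy3-labelled switching-strand clusters, annealed to 100 nM quencher-labelled ATP aptamer on a modified Illumina MiSeq flow-cell, first in selection buffer and then after 15 min with 500 uM ATP at 22 °C. The fluorescence ratio is summed target-cycle over summed buffer-cycle Cy3 intensity per cluster, averaged per switch-domain sequence, with clusters outside 100-1000 RFU excluded.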
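Note: ATP exposure 15 min at 22 °C before imaging.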

Sequence | switch fluorescence ratio
AGGTAGAATG | 0.998 ± 0.0045
GCGGAATGGG | 1.01 ± 0.019
CGTGGGGGAT | 1.01 ± 0.029
ATTGATGCTT | 0.979 ± 0.018
TTTGGGAATT | 1.03 ± 0.035
ATCGGGGTAT | 0.992 ± 0.042
GTTTTTGTAA | 1.02 ± 0.052
TTGTTTTAC | 1.05 ± 0.067
GCAATTCCGG | 1.21 ± 0.035
GGTTTGGATA | 0.985 ± 0.028
CCCTATCAAT | 1.1 ± 0.038
GCTGGTTTCG | 1.033 ± 0.0054
ATACCGTGAG | 1.05 ± 0.011
TTGGCCGTAG | 1.01 ± 0.028
CGGACAGGGT | 0.992 ± 0.013
TTTTTACAAG | 1.21 ± 0.3
TCTGGCGCCG | 1.03 ± 0.017
CAGCGTAGGT | 1.02 ± 0.043
AGTTAGCAAT | 2.45 ± 0.11
TAAATGGTTT | 1.02 ± 0.023
TGGAGTAGG | 1.01 ± 0.025
TTACGTGCAT | 1.01 ± 0.011
CGTTATCGTG | 0.9826 ± 0.0061
AGGGGTGCCT | 0.993 ± 0.013
CAAGGGGGCC | 1.14 ± 0.18
GGAGAAAATG | 1.0023 ± 0.00074

Sequence | switch fluorescence ratio
CATGTAAGGC | 1.03 ± 0.021
AGCGGGTTAC | 1.09 ± 0.06
CACGGGGGAA | 1.03 ± 0.029
AATTGTGGAG | 0.966 ± 0.023
TAGTTGATAA | 0.996 ± 0.018
CCGCTTGAGA | 1.08 ± 0.025
TGACGTGCGC | 1.143 ± 0.0093
CGTTCAACGA | 1 ± 0.029
GGTGGAAATC | 1.09 ± 0.16
GTAAAAAGAG | 1 ± 0.011
GACTAAAATG | 1.02 ± 0.019
ATGTATGTTG | 0.982 ± 0.072
TGGGGATATG | 0.997 ± 0.019
TTTTGTCGTG | 0.95 ± 0.033
GGTCCGGGGG | 1.02 ± 0.025
TAAAGTTAGG | 1 ± 0.011
GTTGGTGGCT | 0.9581 ± 0.0026
TGACTGTTTC | 1.01 ± 0.024
AGGGAAAAAT | 1.06 ± 0.082
TGGGGGCATT | 1.01 ± 0.033
TCAGGCTGGG | 1.02 ± 0.016
CCCTTTTGGG | 0.997 ± 0.035
TTAAAAAGTG | 1.02 ± 0.068
TCGAGATTAA | 1.01 ± 0.024
TATATGAGAT | 1.01 ± 0.017
TCAAGCGGGG | 1.06 ± 0.09

Sequence | switch fluorescence ratio
ACTTTCGATT | 1.09 ± 0.13
GATATTTTTC | 1.035 ± 0.0096
AGGTTAAGTA | 1 ± 0.027
AACCTTTTTA | 1.01 ± 0.045
TGTTGAGTTG | 0.9749 ± 0.0031
TATTCGGTTT | 0.9889 ± 0.0048
TCTTATATTT | 0.9977 ± 0.0021
TGGGGAAAGG | 0.978 ± 0.034
TGTTGCGAAA | 1 ± 0.025
CAGATGTGTT | 0.9728 ± 0.0031
CTAATTTACA | 1.081 ± 0.0097
ATTAAGGCTA | 0.983 ± 0.036
CCCTTGGATA | 0.993 ± 0.021
GGGGGGCAAT | 1.2 ± 0.099
GGCAGCAAGT | 1.16 ± 0.013
TATAAAAGGG | 1.03 ± 0.078
TTAGGGAGTC | 0.992 ± 0.037
TAAGACGTCC | 1.016 ± 0.0088
GAAAGAAACT | 1.63 ± 0.98
CGAGCCTTAA | 1.09 ± 0.035
GGGCGACTGT | 0.978 ± 0.023
ACTTTGGAGA | 1.029 ± 0.0054
TATGTCCGCT | 1.05 ± 0.058
AGGGGAGAGA | 1.04 ± 0.014
AGTAAGTCTG | 0.969 ± 0.02
TGAGGGAGGT | 0.985 ± 0.03

Sequence | switch fluorescence ratio
GGGGGCATCT | 1 ± 0.019
AAATATGAGC | 0.993 ± 0.033
AGGTTAGATG | 0.991 ± 0.013
AATTGTGTTG | 0.98 ± 0.031
TTTTTGGAAC | 1.01 ± 0.023
TAAGAAGGCG | 0.9734 ± 0.0047
GCTACTTAGT | 1.02 ± 0.017
ACCTGTGATC | 1.02 ± 0.026
GGGCCTGAGG | 0.969 ± 0.028
TTAATAATTC | 0.996 ± 0.032
ACTTATAATA | 1.04 ± 0.038
TCGGAGTGGG | 1.03 ± 0.043
TAGCCGGCCT | 1.05 ± 0.025
GCGGGTATGA | 0.964 ± 0.052
TGACGTCTGG | 1.015 ± 0.0071
TTACTAAGCT | 1.03 ± 0.069
TGAAGCAGGG | 1.13 ± 0.018
TTTTGGTCCT | 1.07 ± 0.1
TTATTCTTGT | 1 ± 0.017
AATGGAGATG | 1 ± 0.041
GTGGGGATTG | 0.9379 ± 0.0016
GCATGTCGAT | 1.02 ± 0.023
TGCTGTAACG | 1.02 ± 0.017
GGATGTCACT | 0.974 ± 0.016
CAGAAGGGGG | 1.11 ± 0.16
ATCGGAAAAA | 1.02 ± 0.026

Sequence | switch fluorescence ratio
AGTAGGGAGT | 0.9784 ± 0.0094
TGGAGTGGGG | 1 ± 0.025
TGGGTAGGTG | 1.11 ± 0.028
ATTCTTGAGA | 0.988 ± 0.034
GGGGACCTAT | 1.02 ± 0.018
AGTCTGAAGA | 0.987 ± 0.036
TTCTTGTGTG | 1 ± 0.041
GTATGTTGGG | 1.08 ± 0.045
AGTTAAATTT | 0.994 ± 0.035
GCATTTCTTC | 1.03 ± 0.04
CAACAACTTC | 1.01 ± 0.0034
GGTTTAATAG | 0.986 ± 0.026
TAGGCTCCAA | 1.01 ± 0.02
CACCCGGGCA | 1.07 ± 0.06
ATTCGTGGG | 1.01 ± 0.017
ACGGGCAAGC | 1.72 ± 0.23
ATTAAGCACC | 1.3 ± 0.079
TTTAGCTCTG | 1.02 ± 0.019
CCATTCTCTC | 0.974 ± 0.082
GGTTTCGGGA | 1.01 ± 0.021
ATCACTCACT | 1.18 ± 0.06
CAAGTGCTGT | 0.98 ± 0.033
AGGGTGTGAT | 1.04 ± 0.026
GCCCTGATGC | 1.01 ± 0.051
GAGGTTAGAG | 0.9796 ± 0.0026
TCATTGGTT | 0.985 ± 0.021

Sequence | switch fluorescence ratio
CGTAGGGTTG | 0.974 ± 0.057
TAGAGAGGAG | 1.03 ± 0.021
TCGGAATGTT | 1.02 ± 0.025
CTCATATGGA | 1.01 ± 0.048
GTCCTTTGCC | 1.06 ± 0.011
AGCGATGCGG | 0.9867 ± 0.0023
GAAGCCGGAA | 1.04 ± 0.021
ACTGTAAGTC | 1.06 ± 0.026
GAAAAAAAGA | 1 ± 0.021
ATGAATTAAA | 0.992 ± 0.018
TCATTTAAGA | 0.954 ± 0.014
ATCACGGGCT | 0.967 ± 0.027
ATTGTTTACA | 0.969 ± 0.051
TTGAGAGTTT | 1.04 ± 0.093
GCTTTTACGG | 1.07 ± 0.016
GGAGAAGCGT | 1.04 ± 0.031
TGGGGAGGAA | 1 ± 0.011
TGTTATTGGT | 1.01 ± 0.015
CATTTAGAGG | 1.007 ± 0.0073
GGGCGCAGGG | 1.01 ± 0.01
TTAAAAATCG | 1.02 ± 0.037
AAGGACAGGA | 1.03 ± 0.026
AGGGTTGTAT | 1.001 ± 0.0037
